From patent US20210388087A1 (Chugai, published 2021) come the findings set out here.

The chains are these.
B1: H183/L072 VH A56G (antibody, name in Kabat numbering, V domains shown)
VH: QVQLVESGGGLVQPGRSLRLSCAASGFTFSNAWMHWVRQAPGKGLEWVAQIKDKGNAYGAYYAPSVKGRFTISRDDSKNSIYLQMNSLKTEDTAVYYCHYVHYASASTVLPAFGVDAWGQGTTVTVSS
VL: DIVMTQSPLSLPVTPGEPASISCQASQELVHMNRNTYLHWYQQKPGQAPRLLIYKVSNRFPGVPDRFSGSGSGTDFTLKISRVEAEDVGVYYCAQGTSVPFTFGQGTKLEIK
B2: H183/L072 VH A56W (antibody, name in Kabat numbering, V domains shown)
VH: QVQLVESGGGLVQPGRSLRLSCAASGFTFSNAWMHWVRQAPGKGLEWVAQIKDKGNAYWAYYAPSVKGRFTISRDDSKNSIYLQMNSLKTEDTAVYYCHYVHYASASTVLPAFGVDAWGQGTTVTVSS
VL: DIVMTQSPLSLPVTPGEPASISCQASQELVHMNRNTYLHWYQQKPGQAPRLLIYKVSNRFPGVPDRFSGSGSGTDFTLKISRVEAEDVGVYYCAQGTSVPFTFGQGTKLEIK
B3: H183/L072 VH A56I (antibody, name in Kabat numbering, V domains shown)
VH: QVQLVESGGGLVQPGRSLRLSCAASGFTFSNAWMHWVRQAPGKGLEWVAQIKDKGNAYIAYYAPSVKGRFTISRDDSKNSIYLQMNSLKTEDTAVYYCHYVHYASASTVLPAFGVDAWGQGTTVTVSS
VL: DIVMTQSPLSLPVTPGEPASISCQASQELVHMNRNTYLHWYQQKPGQAPRLLIYKVSNRFPGVPDRFSGSGSGTDFTLKISRVEAEDVGVYYCAQGTSVPFTFGQGTKLEIK
B4: H183/L072 VH A57G (antibody, name in Kabat numbering, V domains shown)
VH: QVQLVESGGGLVQPGRSLRLSCAASGFTFSNAWMHWVRQAPGKGLEWVAQIKDKGNAYAGYYAPSVKGRFTISRDDSKNSIYLQMNSLKTEDTAVYYCHYVHYASASTVLPAFGVDAWGQGTTVTVSS
VL: DIVMTQSPLSLPVTPGEPASISCQASQELVHMNRNTYLHWYQQKPGQAPRLLIYKVSNRFPGVPDRFSGSGSGTDFTLKISRVEAEDVGVYYCAQGTSVPFTFGQGTKLEIK
B5: H183/L072 VH A56V (antibody, name in Kabat numbering, V domains shown)
VH: QVQLVESGGGLVQPGRSLRLSCAASGFTFSNAWMHWVRQAPGKGLEWVAQIKDKGNAYVAYYAPSVKGRFTISRDDSKNSIYLQMNSLKTEDTAVYYCHYVHYASASTVLPAFGVDAWGQGTTVTVSS
VL: DIVMTQSPLSLPVTPGEPASISCQASQELVHMNRNTYLHWYQQKPGQAPRLLIYKVSNRFPGVPDRFSGSGSGTDFTLKISRVEAEDVGVYYCAQGTSVPFTFGQGTKLEIK
B6: H183/L072 VH A57E (antibody, name in Kabat numbering, V domains shown)
VH: QVQLVESGGGLVQPGRSLRLSCAASGFTFSNAWMHWVRQAPGKGLEWVAQIKDKGNAYAEYYAPSVKGRFTISRDDSKNSIYLQMNSLKTEDTAVYYCHYVHYASASTVLPAFGVDAWGQGTTVTVSS
VL: DIVMTQSPLSLPVTPGEPASISCQASQELVHMNRNTYLHWYQQKPGQAPRLLIYKVSNRFPGVPDRFSGSGSGTDFTLKISRVEAEDVGVYYCAQGTSVPFTFGQGTKLEIK
B7: H183/L072 VH A56K (antibody, name in Kabat numbering, V domains shown)
VH: QVQLVESGGGLVQPGRSLRLSCAASGFTFSNAWMHWVRQAPGKGLEWVAQIKDKGNAYKAYYAPSVKGRFTISRDDSKNSIYLQMNSLKTEDTAVYYCHYVHYASASTVLPAFGVDAWGQGTTVTVSS
VL: DIVMTQSPLSLPVTPGEPASISCQASQELVHMNRNTYLHWYQQKPGQAPRLLIYKVSNRFPGVPDRFSGSGSGTDFTLKISRVEAEDVGVYYCAQGTSVPFTFGQGTKLEIK
B8: H183/L072 VH A56H (antibody, name in Kabat numbering, V domains shown)
VH: QVQLVESGGGLVQPGRSLRLSCAASGFTFSNAWMHWVRQAPGKGLEWVAQIKDKGNAYHAYYAPSVKGRFTISRDDSKNSIYLQMNSLKTEDTAVYYCHYVHYASASTVLPAFGVDAWGQGTTVTVSS
VL: DIVMTQSPLSLPVTPGEPASISCQASQELVHMNRNTYLHWYQQKPGQAPRLLIYKVSNRFPGVPDRFSGSGSGTDFTLKISRVEAEDVGVYYCAQGTSVPFTFGQGTKLEIK
B9: H183/L072 VH A56S (antibody, name in Kabat numbering, V domains shown)
VH: QVQLVESGGGLVQPGRSLRLSCAASGFTFSNAWMHWVRQAPGKGLEWVAQIKDKGNAYSAYYAPSVKGRFTISRDDSKNSIYLQMNSLKTEDTAVYYCHYVHYASASTVLPAFGVDAWGQGTTVTVSS
VL: DIVMTQSPLSLPVTPGEPASISCQASQELVHMNRNTYLHWYQQKPGQAPRLLIYKVSNRFPGVPDRFSGSGSGTDFTLKISRVEAEDVGVYYCAQGTSVPFTFGQGTKLEIK
B10: H183/L072 VH A56P (antibody, name in Kabat numbering, V domains shown)
VH: QVQLVESGGGLVQPGRSLRLSCAASGFTFSNAWMHWVRQAPGKGLEWVAQIKDKGNAYPAYYAPSVKGRFTISRDDSKNSIYLQMNSLKTEDTAVYYCHYVHYASASTVLPAFGVDAWGQGTTVTVSS
VL: DIVMTQSPLSLPVTPGEPASISCQASQELVHMNRNTYLHWYQQKPGQAPRLLIYKVSNRFPGVPDRFSGSGSGTDFTLKISRVEAEDVGVYYCAQGTSVPFTFGQGTKLEIK
B11: H183/L072 VH A57D (antibody, name in Kabat numbering, V domains shown)
VH: QVQLVESGGGLVQPGRSLRLSCAASGFTFSNAWMHWVRQAPGKGLEWVAQIKDKGNAYADYYAPSVKGRFTISRDDSKNSIYLQMNSLKTEDTAVYYCHYVHYASASTVLPAFGVDAWGQGTTVTVSS
VL: DIVMTQSPLSLPVTPGEPASISCQASQELVHMNRNTYLHWYQQKPGQAPRLLIYKVSNRFPGVPDRFSGSGSGTDFTLKISRVEAEDVGVYYCAQGTSVPFTFGQGTKLEIK
B12: H183/L072 VH A56Q (antibody, name in Kabat numbering, V domains shown)
VH: QVQLVESGGGLVQPGRSLRLSCAASGFTFSNAWMHWVRQAPGKGLEWVAQIKDKGNAYQAYYAPSVKGRFTISRDDSKNSIYLQMNSLKTEDTAVYYCHYVHYASASTVLPAFGVDAWGQGTTVTVSS
VL: DIVMTQSPLSLPVTPGEPASISCQASQELVHMNRNTYLHWYQQKPGQAPRLLIYKVSNRFPGVPDRFSGSGSGTDFTLKISRVEAEDVGVYYCAQGTSVPFTFGQGTKLEIK
B13: H183/L072 VH A56R (antibody, name in Kabat numbering, V domains shown)
VH: QVQLVESGGGLVQPGRSLRLSCAASGFTFSNAWMHWVRQAPGKGLEWVAQIKDKGNAYRAYYAPSVKGRFTISRDDSKNSIYLQMNSLKTEDTAVYYCHYVHYASASTVLPAFGVDAWGQGTTVTVSS
VL: DIVMTQSPLSLPVTPGEPASISCQASQELVHMNRNTYLHWYQQKPGQAPRLLIYKVSNRFPGVPDRFSGSGSGTDFTLKISRVEAEDVGVYYCAQGTSVPFTFGQGTKLEIK
B14: H183/L072 VH A56Y (antibody, name in Kabat numbering, V domains shown)
VH: QVQLVESGGGLVQPGRSLRLSCAASGFTFSNAWMHWVRQAPGKGLEWVAQIKDKGNAYYAYYAPSVKGRFTISRDDSKNSIYLQMNSLKTEDTAVYYCHYVHYASASTVLPAFGVDAWGQGTTVTVSS
VL: DIVMTQSPLSLPVTPGEPASISCQASQELVHMNRNTYLHWYQQKPGQAPRLLIYKVSNRFPGVPDRFSGSGSGTDFTLKISRVEAEDVGVYYCAQGTSVPFTFGQGTKLEIK
B15: H183/L072 VH A57F (antibody, name in Kabat numbering, V domains shown)
VH: QVQLVESGGGLVQPGRSLRLSCAASGFTFSNAWMHWVRQAPGKGLEWVAQIKDKGNAYAFYYAPSVKGRFTISRDDSKNSIYLQMNSLKTEDTAVYYCHYVHYASASTVLPAFGVDAWGQGTTVTVSS
VL: DIVMTQSPLSLPVTPGEPASISCQASQELVHMNRNTYLHWYQQKPGQAPRLLIYKVSNRFPGVPDRFSGSGSGTDFTLKISRVEAEDVGVYYCAQGTSVPFTFGQGTKLEIK
B16: H183/L072 VH A57H (antibody, name in Kabat numbering, V domains shown)
VH: QVQLVESGGGLVQPGRSLRLSCAASGFTFSNAWMHWVRQAPGKGLEWVAQIKDKGNAYAHYYAPSVKGRFTISRDDSKNSIYLQMNSLKTEDTAVYYCHYVHYASASTVLPAFGVDAWGQGTTVTVSS
VL: DIVMTQSPLSLPVTPGEPASISCQASQELVHMNRNTYLHWYQQKPGQAPRLLIYKVSNRFPGVPDRFSGSGSGTDFTLKISRVEAEDVGVYYCAQGTSVPFTFGQGTKLEIK
B17: H183/L072 VH A56M (antibody, name in Kabat numbering, V domains shown)
VH: QVQLVESGGGLVQPGRSLRLSCAASGFTFSNAWMHWVRQAPGKGLEWVAQIKDKGNAYMAYYAPSVKGRFTISRDDSKNSIYLQMNSLKTEDTAVYYCHYVHYASASTVLPAFGVDAWGQGTTVTVSS
VL: DIVMTQSPLSLPVTPGEPASISCQASQELVHMNRNTYLHWYQQKPGQAPRLLIYKVSNRFPGVPDRFSGSGSGTDFTLKISRVEAEDVGVYYCAQGTSVPFTFGQGTKLEIK
B18: H183/L072 VH A56N (antibody, name in Kabat numbering, V domains shown)
VH: QVQLVESGGGLVQPGRSLRLSCAASGFTFSNAWMHWVRQAPGKGLEWVAQIKDKGNAYNAYYAPSVKGRFTISRDDSKNSIYLQMNSLKTEDTAVYYCHYVHYASASTVLPAFGVDAWGQGTTVTVSS
VL: DIVMTQSPLSLPVTPGEPASISCQASQELVHMNRNTYLHWYQQKPGQAPRLLIYKVSNRFPGVPDRFSGSGSGTDFTLKISRVEAEDVGVYYCAQGTSVPFTFGQGTKLEIK
B19: H183/L072 VH A56T (antibody, name in Kabat numbering, V domains shown)
VH: QVQLVESGGGLVQPGRSLRLSCAASGFTFSNAWMHWVRQAPGKGLEWVAQIKDKGNAYTAYYAPSVKGRFTISRDDSKNSIYLQMNSLKTEDTAVYYCHYVHYASASTVLPAFGVDAWGQGTTVTVSS
VL: DIVMTQSPLSLPVTPGEPASISCQASQELVHMNRNTYLHWYQQKPGQAPRLLIYKVSNRFPGVPDRFSGSGSGTDFTLKISRVEAEDVGVYYCAQGTSVPFTFGQGTKLEIK
B20: H183/L072 VH A56L (antibody, name in Kabat numbering, V domains shown)
VH: QVQLVESGGGLVQPGRSLRLSCAASGFTFSNAWMHWVRQAPGKGLEWVAQIKDKGNAYLAYYAPSVKGRFTISRDDSKNSIYLQMNSLKTEDTAVYYCHYVHYASASTVLPAFGVDAWGQGTTVTVSS
VL: DIVMTQSPLSLPVTPGEPASISCQASQELVHMNRNTYLHWYQQKPGQAPRLLIYKVSNRFPGVPDRFSGSGSGTDFTLKISRVEAEDVGVYYCAQGTSVPFTFGQGTKLEIK

T1 sequence (chain, as listed by the source limits assumed): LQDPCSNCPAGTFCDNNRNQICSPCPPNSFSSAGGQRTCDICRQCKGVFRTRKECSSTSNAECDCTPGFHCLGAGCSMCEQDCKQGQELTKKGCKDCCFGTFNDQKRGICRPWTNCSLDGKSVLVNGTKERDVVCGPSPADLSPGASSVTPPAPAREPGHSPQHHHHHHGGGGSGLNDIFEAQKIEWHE

This assay concerns the target T1, Human CD137 ECD (human).
T1 construct: also called 4-1BB
Description: single mutant vs template dBBDu183H.
For B1, the “fold change of affinity” value was found to be 0.6 fold.

For B2, the “fold change of affinity” value turned out to be 0.3 fold.

Turning to B3, the “fold change of affinity” value is 0.2 fold.

In the case of B4, the “fold change of affinity” value was found to be 0.9 fold.

For the molecule B5, the “fold change of affinity” value was 0.2 fold.

As for B6, the “fold change of affinity” value worked out at 0.9 fold.

In the case of B7, the “fold change of affinity” value was 0.8 fold.

On to B8, for which the “fold change of affinity” value came out at 0.6 fold.

B9: the “fold change of affinity” value was determined as 0.7 fold.

Turning to B10, the “fold change of affinity” value worked out at 0.2 fold.

Regarding B11, the “fold change of affinity” value worked out at 1.2 fold.

Turning to B12, the “fold change of affinity” value came out at 0.8 fold.

Take B13: the “fold change of affinity” value was found to be 0.8 fold.

As to B14, the “fold change of affinity” value is 0.3 fold.

B15: the “fold change of affinity” value stood at 0.1 fold.

With B16, the “fold change of affinity” value is 0.5 fold.

For B17, the “fold change of affinity” value stood at 0.7 fold.

Turning to B18, the “fold change of affinity” value worked out at 0.7 fold.

For B19, the “fold change of affinity” value was found to be 0.4 fold.

Take B20: the “fold change of affinity” value was found to be 0.5 fold.
